This passage reports binding results from article PMC6602413.

The target in series [1] is T1, Strep-RapZ (Escherichia coli (K-12?)) (UniProt P0A894).
T1 sequence: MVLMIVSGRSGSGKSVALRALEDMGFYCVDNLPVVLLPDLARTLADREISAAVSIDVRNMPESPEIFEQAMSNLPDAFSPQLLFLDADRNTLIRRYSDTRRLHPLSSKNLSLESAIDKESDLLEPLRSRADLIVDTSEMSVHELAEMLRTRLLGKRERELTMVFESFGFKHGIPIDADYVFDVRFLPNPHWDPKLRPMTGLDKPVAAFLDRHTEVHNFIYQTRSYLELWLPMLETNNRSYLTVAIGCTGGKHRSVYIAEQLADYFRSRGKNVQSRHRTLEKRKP
In words: EMSA. The conditions noted are these: 10 mM Tris-HCl pH 7.0, 100 mM KCl, 10 mM MgCl2, 1 ug yeast tRNA per 10 ul, 30 min at 30 C (competition 15 + 15 min); native 6% PAGE at 4 C. In general terms: A gel shift assay detects complexes by their altered migration in electrophoresis.

The target in series [2] is T1, Strep-RapZ (Escherichia coli (K-12?)). Nature of the series: competition. As to conditions: 10 mM Tris-HCl pH 7.0, 100 mM KCl, 10 mM MgCl2, 1 ug yeast tRNA per 10 ul, 30 min at 30 C (competition 15 + 15 min); native 6% PAGE at 4 C.

With “GGGAGAGUAGAUGCUCAUUCCAUCUCUUAUGUUCGCCUUAGUGCCUCAUAAACUCCGGAAUGACGCAGAGCCGUUUACGGUGCUUAUCGUCCACUGACAGAUGUCGCUUAUGCCUCAUCAGACACCAUGGACACAACGUUGAGUGAAGCACCCACUUGUUG [GlmZ* (processed GlmZ)]”, the binding result in series [1] and in series [2] was “binds” each time.

On to “GGGAGAGUAGAUGCUCAUUCCAUCUCUUAUGUUCGCCUUAGUGCCUCAUAAACUCCGGAAUGACGCAGAGCCGUUUACGGUGCUUAUCGUCCACUGACAGAUGUCGCUUAUGCCUCAUCAGACACCAUGGACACAACGUUGAGUGAAGCACCCACUUGUUGUCAUACAGACCUGUUUUAACGCCUGCUCCGUAAUAAGAGCAGGCGUUUUUUU [GlmZ full-length]”, for which the binding result in series [1] and in series [2] was “binds” in each case.
